Reference: patent US20210338838A1 (UNIVERSITY OF UTAH RESEARCH FOUNDATION, published 2021)

B1: monomeric C-reactive protein (CRP) (other, UniProt P02741 19-224, looked up)
chain: QTDMSRKAFVFPKESDTSYVSLKAPLTKPLKAFTVCLHFYTELSSTRGYSIFSYATKRQDNEILIFWSKDIGYSFTVGGSEILFEVPEVTVAPVHICTSWESASGIVEFWVDGKPRVRKSLKKGYTVGAEASIILGQEQDSFGGNFEGSQSLVGDIGNVNMWDFVLSPDEINTIYLGGPFSPNVLNWRALKYEVQGEVFTKPQLWP
B2: protective CFH-I62-Y402-E936 (full-length complement factor H) (other)
chain: EDCNELPPRRNTEILTGSWSDQTYPEGTQAIYKCRPGYRSLGNIIMVCRKGEWVALNPLRKCQKRPCGHPGDTPFGTFTLTGGNVFEYGVKAVYTCNEGYQLLGEINYRECDTDGWTNDIPICEVVKCLPVTAPENGKIVSSAMEPDREYHFGQAVRFVCNSGYKIEGDEEMHCSDDGFWSKEKPKCVEISCKSPDVINGSPISQKIIYKENERFQYKCNMGYEYSERGDAVCTESGWRPLPSCEEKSCDNPYIPNGDYSPLRIKHRTGDEITYQCRNGFYPATRGNTAKCTSTGWIPAPRCTLKPCDYPDIKHGGLYHENMRRPYFPVAVGKYYSYYCDEHFETPSGSYWDHIHCTQDGWSPAVPCLRKCYFPYLENGYNQNYGRKFVQGKSIDVACHPGYALPKAQTTVTCMENGWSPTPRCIRVKTCSKSSIDIENGFISESQYTYALKEKAKYQCKLGYVTADGETSGSITCGKDGWSAQPTCIKSCDIPVFMNARTKNDFTWFKLNDTLDYECHDGYESNTGSTTGSIVCGYNGWSDLPICYERECELPKIDVHLVPDRKKDQYKVGEVLKFSCKPGFTIVGPNSVQCYHFGLSPDLPICKEQVQSCGPPPELLNGNVKEKTKEEYGHSEVVEYYCNPRFLMKGPNKIQCVDGEWTTLPVCIVEESTCGDIPELEHGWAQLSSPPYYYGDSVEFNCSESFTMIGHRSITCIHGVWTQLPQCVAIDKLKKCKSSNLIILEEHLKNKKEFDHNSNIRYRCRGKEGWIHTVCINGRWDPEVNCSMAQIQLCPPPPQIPNSHNMTTTLNYRDGEKVSVLCQENYLIQEGEEITCKDGRWQSIPLCVEKIPCSQPPQIEHGTINSSRSSQESYAHGTKLSYTCEGGFRISEENETTCYMGKWSSPPQCEGLPCKSPPEISHGVVAHMSDSYQYGEEVTYKCFEGFGIDGPAIAKCLGEKWSHPPSCIKTDCLSLPSFENAIPMGEKKDVYKAGEQVTYTCATYYKMDGASNVTCINSRWTGRPTCRDTSCVNPPTVQNAYIVSRQMSKYPSGERVRYQCRSPYEMFGDEEVMCLNGNWTEPPQCKDSTGKCGPPPPIDNGDITSFPLSVYAPASSVEYQCQNLYQLEGNKRITCRNGQWSEPPKCLHPCVISREIMENYNIALRWTAKQKLYSRTGESVEFVCKRGYRLSSRSHTLRTTCWDGKLEYPTCAKR
notes: In the Western blot it was expressed in RPE1 cells from plasmid pCTM133; also called CFH-Protection
B3: protective CFHT-I62-Y402 (truncated complement factor H ending in SFTL) (other)
chain: EDCNELPPRRNTEILTGSWSDQTYPEGTQAIYKCRPGYRSLGNIIMVCRKGEWVALNPLRKCQKRPCGHPGDTPFGTFTLTGGNVFEYGVKAVYTCNEGYQLLGEINYRECDTDGWTNDIPICEVVKCLPVTAPENGKIVSSAMEPDREYHFGQAVRFVCNSGYKIEGDEEMHCSDDGFWSKEKPKCVEISCKSPDVINGSPISQKIIYKENERFQYKCNMGYEYSERGDAVCTESGWRPLPSCEEKSCDNPYIPNGDYSPLRIKHRTGDEITYQCRNGFYPATRGNTAKCTSTGWIPAPRCTLKPCDYPDIKHGGLYHENMRRPYFPVAVGKYYSYYCDEHFETPSGSYWDHIHCTQDGWSPAVPCLRKCYFPYLENGYNQNYGRKFVQGKSIDVACHPGYALPKAQTTVTCMENGWSPTPRCIRVSFTL
notes: In the Western blot it was expressed in RPE1 cells from pCTM134 and from eCFH/T v4.1; also called CFHT-Protection; native protective CFHT

Key:
[1] = target: B2; assay: plate-based binding assay, His-tagged recombinant protein from HEK293 cells
[2] = target: B3; assay: as above
[3] = target: T1, eCFHT-SK (engineered truncated CFH, I62-Y402, ending in SKSFTL) (human, UniProt P08603 19-445); assay: as above
T1 construct: Non-natural variant of human CFHT with SK inserted before the C-terminal SFTL; In the Western blot it was expressed from eCFH/T v4.2 in RPE1 cells; also called protective eCFHT-SK; truncated product of eCFH/T v4.2
T1 sequence (P08603 other isoform, or with tags, fused parts or gaps): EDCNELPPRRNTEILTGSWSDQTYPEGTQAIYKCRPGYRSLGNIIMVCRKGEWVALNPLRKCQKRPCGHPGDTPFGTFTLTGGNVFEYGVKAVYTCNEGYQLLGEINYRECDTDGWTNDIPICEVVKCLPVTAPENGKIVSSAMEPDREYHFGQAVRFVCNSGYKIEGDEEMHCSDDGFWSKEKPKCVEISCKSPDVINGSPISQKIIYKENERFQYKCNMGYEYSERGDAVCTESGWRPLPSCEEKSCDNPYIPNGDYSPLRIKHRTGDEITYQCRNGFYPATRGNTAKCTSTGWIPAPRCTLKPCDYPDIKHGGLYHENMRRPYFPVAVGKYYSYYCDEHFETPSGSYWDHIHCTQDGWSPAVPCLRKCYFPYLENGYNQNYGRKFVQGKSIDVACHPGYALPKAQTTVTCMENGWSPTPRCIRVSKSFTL

[4] = target: T2, eCFHT-SE (engineered truncated CFH, I62-Y402, ending in SESFTL) (human, UniProt P08603 19-445); assay: as above
T2 construct: The chain is built from the first 445 residues shared by CFH and CFHT, less the 18-residue signal peptide, plus the printed C-terminal SESFTL; His-tagged and purified from HEK293 cells; also called protective eCFHT-SE; truncated product of eCFH/T v4.3
T2 sequence (P08603 other isoform, or with tags, fused parts or gaps): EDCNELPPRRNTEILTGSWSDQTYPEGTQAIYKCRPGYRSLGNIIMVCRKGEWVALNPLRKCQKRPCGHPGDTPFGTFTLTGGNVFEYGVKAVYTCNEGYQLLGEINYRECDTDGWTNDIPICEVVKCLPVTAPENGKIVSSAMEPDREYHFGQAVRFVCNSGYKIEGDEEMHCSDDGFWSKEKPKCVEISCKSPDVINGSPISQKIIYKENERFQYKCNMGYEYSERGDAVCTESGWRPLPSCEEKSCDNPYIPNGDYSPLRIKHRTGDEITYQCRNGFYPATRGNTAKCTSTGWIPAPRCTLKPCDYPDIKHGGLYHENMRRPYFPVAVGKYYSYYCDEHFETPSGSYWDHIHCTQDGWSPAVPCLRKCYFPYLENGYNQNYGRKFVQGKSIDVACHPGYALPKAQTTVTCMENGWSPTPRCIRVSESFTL

[5] = target: B1; assay: relative CRP-binding assay, detection antibody AbCam OX-24 (#Ab112197)
[6] = target: T3, MDA-modified LDL particles; assay: relative MDA-binding assay, detection antibody AbCam OX-24 (#Ab112197)
T3 construct: Not a plain protein; also called MDA-LDL; MDA adducts

[7] = target: B1; assay: rank of binding affinity among six proteins, plate-based binding assays
[8] = target: T3, MDA-modified LDL particles; assay: as above
[9] = target: T3, MDA-modified LDL particles; assay: plate-based binding assay, His-tagged recombinant protein from HEK293 cells
[10] = target: B1; assay: relative CRP-binding assay, percent of CFH-Risk, detection antibody AbCam OX-24 (#Ab112197)
[11] = target: T3, MDA-modified LDL particles; assay: relative MDA-binding assay, percent of CFH-Risk, detection antibody AbCam OX-24 (#Ab112197)
[12] = target: B1; assay: plate-based CRP binding assay, against protective CFH

| Kd [1] | Kd [2] | Kd [3] | Kd [4] | Binding Potential [5] | Binding Potential [6] | Binding Affinity Rank (1 best to 6 worst) [7] | Binding Affinity Rank (1 best to 6 worst) [8] | Kd [9] | % FH-Risk [10] | % FH-Risk [11] | fold better binding affinity than CFH [12] | Binder |
| --- | --- | --- | --- | --- | --- | --- | --- | --- | --- | --- | --- | --- |
| 127 nM | 14.3 nM | 13.7 nM | 25.3 nM |  |  |  |  |  |  |  |  | B1 |
|  |  |  |  | 10 | 75 | 4 rank | 2 rank | 222 nM | 656% | 251% |  | B2 |
|  |  |  |  | 87 | 32 | 2 rank | 1 rank | 219 nM | 5900% | 107% | ~10 fold | B3 |
